Target: the molecule itself
Assay: crystal structure

B1: N141A HincII (enzyme)
chain: MSFIKPIYQDINSILIGQKVKRPKSGTLSGHAAGEPFEKLVYKFLKENLSDLTFKQYEYLNDLFMKNPAIIGHEARYKLFNSPTLLFLLSRGKAATENWSIENLFEEKQNDTADILLVKDQFYELLDVKRRNISKSAQAPAIISAYKLAQTCAKMIDNKEFDLFDINYLEVDSELNGEDLVCVSTSFAELFKSEPSELYINWAAAMQIQFHVRDLDQGFNGTREEWAKSYLKHFVTQAEQRAISMIDKFVKPFKKYIL
For B1, the “stoichiometry N” value was 2.
